Results: the DeepSol protein solubility set

assay: soluble on expression in E. coli; label from the status in PepcDB or PDB records

Row | Sequence | soluble on expression in E. coli
1 | MGSDKIHHHHHHMLFLQNTPLPEIIDGLPNISGWEAEVLSVVNNDAPVFLPTTNIKLEDVNAVFAIALHMHQPTIPAGDGGELISNLQYMFAHPHEGDNHNAGPFAYCYSRMGEFIPELVSQGCNPRVMLDYSGNLLWGLRQMGRNDVLDSLKGVTGDRTYQPHVEWLGTMWGHAVVPSTPIKDIKLHILAWQQHFAAIFGWEALARVKGFSPPEMHLPNHPDTLFQFVKALKECGYRWLLVQEHTVETIDGQSLTNRHLPHRLLARNSQGETISIIALIKTQGSDTKLVAQMQPYYEAKTLSKRRLGNVEIPPIVSQIGDGENGGVMMNEFPSAFKQAWWDMVNHGGGKSGVVGVCGTEYLELIEAAGVKPEDFPSCQPVGQHQIWQRVAPDNNQPEAVENAIQEIKQINPNFHLEGASWTNHISWVRGYENVLSPMYELSSLFHQKFDNLLLNNSYSSITKQPDYRQALLYNLLLQTSCFRYWGQGAWTDYAREIYQRGKSLLTS | not soluble
2 | MGSDKIHHHHHHMLFWSTVDLGLTFMATSSTLAFDSSNRIDDVKIVIKGYEFGPAVPKLVVKLNQKISKVSTKDLKVETAGVKRQIKKVYLSDKNSQKSTKKEGDYLTIQMPVTYNVDDSSKNASPFVYNTDVFQNQWVKTYPVSIKGLTVSYKGKSTNNLTSKSDAINKRVSPDSEVFTNRGSFSGNYTNPLTKKNEKVDLQYAAYEPKKLQSGNKNPLIIWLHGQGEGGTDPDITLLGNKVTALIKEDIQNHFKSGNQKGTYVLTVQAPTYWMDEGDGSNGQGAGTSRYTEVLMDAIKKYVAKIT | not soluble
3 | MGSDKIHHHHHHMLGENIYLQRTQIGMTQENLSDYLHLTKTTISKWENNQAKPDIDYLILMANLFDISLDDLVGYQKTLSDDQRNQLIKDLKIKANVLSERDFFQEVKELSKQFPNDFKTLLIMINMVLSNLTNLNDSEMKEWSLSTLNKIISKTVVESDLQTAIMFKTVVLFHNLEYDEVINLYQNSPYKLGEELLLANSFFAKVDVYRAKQVLQVEIYQQILLVCEYLLSLSTFEVEENKGDIFERLEHMIEAFQLNSLHPNTVIKCYYSLACHYSKSDDDKALGYLKQCFKSLKQLLQRFELHGDTFFYTIDDWLETIPTGIAPPTSQLQVIERVEDLFQNSQFKELSGHKEFQQMIQKLNDLKKDY | not soluble
4 | MGSDKIHHHHHHMLHFKHSSVINATPEVVWKFHERPDILQLLNPPWQPVQVVRREGGLNVGAITEFRLFLGPLPLTWLARHTECDKYRLFTDEQISGPFESWVHRHEFEPEAGKTRLTDAISFSMPGGETVEFVSGWLVQVQLEAMFRYRHYVTKRECESQ | not soluble
5 | MGSDKIHHHHHHMLHIVNNLRDSFTPGTPHQAALAQIFPQDSEKQTMDKRDLSAIFRERLKLLLTRSDLNQSAFASAVGIDRSALSQLMSGASTRLPRAETLLNIAAEFKVSLDWLLGLSQDEGVTGEIRESLEIEEAPDGFDRTLLAKWFAEAAGTKIRYVPAGIPDLLRTRALVDYEANITNRSRLAQASETQYRIEYNRRPETDMEVCMPRHTLEIFARGLGVWDRFPEADRRQQLAHMATLLDDLYPTFRLFLYDGRMRYSIPLTIFGPYRAAIYVGDMYVVLNATQPVQALTQHFDNLIRAADVNPHEAAAFARNLAGMSFPSGSV | not soluble
6 | MGSDKIHHHHHHMLHRTCIQFHKFGNPKDVLQVEYKNIEPLKENEVLVRMLVRPINPSDLIPITGAYAHRIPLPNIPGYEGVGIVEDVGAFVSRDLIGKRVLPLRGEGTWQEYVKTSPDFVVPIPDSINDFTAAQMYINPLTAWVTCTETLNLQRNDVLLVNACGSAIGHLFAQLSQILNFRLIAVTRNNKHTEELLRLGAAYVIDTSTAPLYETVMTLTNGIGADAAIDSIGGPDGNELAFSLRPNGHFLTIGLLSGVQVNWAEIVTKAKVHANIFHLRHWNKEASSYKWQETFRHLIRLVENEQLRFMKVHSTYDLADVKAAVDVVQSAEKTKG | not soluble
7 | MGSDKIHHHHHHMLIAQVTDIHLGFEPDSPDEFNRQRLDRVLAELAAMDPRPDLLLATGDLIDRGDRESYERLRDAFSNLPFPVHYALGNHDERETFSAVFPEAAFTDGFLQYIVDAGPLRIIVLDTLEEGRHGGAFCDVRARWLKARLDEAPDTRTLIVQHHPPVEVGIAWMNTDPAEPWVERLGQCLRGRTNVVGVVCGHIHRAITTAWEGTVVATCPSTAPQVALDLRPIDPDVPDQRNLIIADPPGYALHWFNGRELITHWDTAEDHQVLARYDANLQGMIQHMLAERPGAQAAE | not soluble
